Measured values: patent US20190338048A1 (published 2019)
Like-named read-outs stand apart in the source and are kept apart here.

Experiments:
Recombinant human IL-17A = Recombinant human IL-17A (human, UniProt Q16552 20-155, limits assumed); assay: SPR
[1] = biological target: CAT-2200 heavy chain Fab construct (H1), wild type; assay: LCCA, SPR tag read-out
[2] = biological target: Pertuzumab heavy chain Fab construct (H2) Q39D (VH Q39D); assay: LCCA, SPR tag read-out
[3] = biological target: Pertuzumab heavy chain Fab construct (H2) Q39E (VH Q39E); assay: LCCA, SPR tag read-out
[4] = biological target: CAT-2200 heavy chain Fab construct (H1) Q39K (VH Q39K); assay: LCCA, SPR tag read-out
[5] = biological target: Pertuzumab heavy chain Fab construct (H2) Q39D (VH Q39D); assay: LCCA, SPR tag read-out; remark: listed apart in the source
[6] = biological target: Pertuzumab heavy chain Fab construct (H2) Q39E (VH Q39E); assay: LCCA, SPR tag read-out; remark: listed apart in the source
[7] = biological target: CAT-2200 heavy chain Fab construct (H1) Q39K (VH Q39K); assay: LCCA, SPR tag read-out; remark: listed apart in the source
[8] = biological target: Pertuzumab heavy chain Fab construct (H2) Q39D (VH Q39D); assay: LCCA, SPR tag read-out; remark: listed apart in the source
[9] = biological target: Pertuzumab heavy chain Fab construct (H2) Q39E (VH Q39E); assay: LCCA, SPR tag read-out; remark: listed apart in the source
[10] = biological target: CAT-2200 heavy chain Fab construct (H1) Q39D (VH Q39D); assay: LCCA, SPR tag read-out
[11] = biological target: CAT-2200 heavy chain Fab construct (H1) Q39E (VH Q39E); assay: LCCA, SPR tag read-out
[12] = biological target: Pertuzumab heavy chain Fab construct (H2) Q39R (VH Q39R); assay: LCCA, SPR tag read-out
[13] = biological target: CAT-2200 heavy chain Fab construct (H1) Q39E (VH Q39E); assay: LCCA, SPR tag read-out; remark: listed apart in the source
[14] = biological target: Pertuzumab heavy chain Fab construct (H2) Q39K (VH Q39K); assay: LCCA, SPR tag read-out
[15] = biological target: CAT-2200 heavy chain Fab construct (H1) Q39R (VH Q39R); assay: LCCA, SPR tag read-out
[16] = biological target: CAT-2200 heavy chain Fab construct (H1) Q39R (VH Q39R); assay: LCCA, SPR tag read-out; remark: listed apart in the source

Recombinant human IL-17A, sequence (Q16552 20-155 limits assumed): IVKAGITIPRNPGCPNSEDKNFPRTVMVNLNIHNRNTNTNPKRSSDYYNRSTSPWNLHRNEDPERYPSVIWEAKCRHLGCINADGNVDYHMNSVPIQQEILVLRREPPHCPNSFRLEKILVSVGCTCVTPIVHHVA

H1L1:H1L2 normalized median ratio (H1L2 part) [1] | H2L2:H2L1 normalized median ratio (H2L2 part) [2] | H2L2:H2L1 normalized median scalar value ln(r1/f1) [2] | H2L2:H2L1 normalized median ratio (H2L2 part) [3] | H2L2:H2L1 normalized median scalar value ln(r1/f1) [3] | H2L2:H2L1 normalized median ratio (H2L2 part) [5] | H2L2:H2L1 normalized median scalar value ln(r1/f1) [5] | H2L2:H2L1 normalized median ratio (H2L2 part) [6] | H2L2:H2L1 normalized median scalar value ln(r1/f1) [6] | H2L2:H2L1 normalized median ratio (H2L2 part) [8] | H2L2:H2L1 normalized median scalar value ln(r1/f1) [8] | H2L2:H2L1 normalized median ratio (H2L2 part) [9] | H2L2:H2L1 normalized median scalar value ln(r1/f1) [9] | also measured | Binder
– | – | – | – | – | – | – | – | – | – | – | – | – | Change in KD of H1L1 Fab vs wild type (Recombinant human IL-17A): 0 | CAT-2200 Fab heterodimer H1L1, no pairing substitutions (wild-type H1 and L1), light chain with FLAG tag (Fab, V domains shown, not shown: small tags and cut ends) VH: not shown VL: NFMLTQPHSVSESPGKTVTISCTRSSGSLANYYVQWYQQRPGSSPTIVIFANNQRPSGVPDRFSGSIDSSSNSASLTISGLKTEDEADYYCQTYDPYSVVFGGGTKLTVLG
33% | 47% | -0.11 | 47% | -0.11 | 75% | 1.09 | 75% | 1.09 | 79% | 1.35 | 78% | 1.29 | H1L1:H1L2 normalized median ratio (H1L2 part) [4]: 29%; H1L1:H1L2 normalized median ratio (H1L2 part) [7]: 35% | Pertuzumab kappa light chain construct (L2) Q38K, HA-tagged (other, not shown: small tags and cut ends) light: DIQMTQSPSSLSASVGDRVTITCKASQDVSIGVAWYQKKPGKAPKLLIYSASYRYTGVPSRFSGSGSGTDFTLTISSLQPEDFATYYCQQYYIYPYTFGQGTKVEIKRTVAAPSVFIFPPSDEQLKSGTASVVCLLNNFYPREAKVQWKVDNALQSGNSQESVTEQDSKDSTYSLSSTLTLSKADYEKHKVYACEVTHQGLSSPVTKSFNRGEC
– | – | – | – | – | – | – | – | – | – | – | – | – | H1L1:H1L2 normalized median ratio (H1L2 part) [10]: 36%; H1L1:H1L2 normalized median ratio (H1L2 part) [11]: 31%; H2L2:H2L1 normalized median ratio (H2L2 part) [12]: 54%; H2L2:H2L1 normalized median scalar value ln(r1/f1) [12]: 0.15; H1L1:H1L2 normalized median ratio (H1L2 part) [13]: 24%; H2L2:H2L1 normalized median ratio (H2L2 part) [14]: 54% | Pertuzumab kappa light chain construct (L2) Q38E, HA-tagged (other, not shown: small tags and cut ends) light: DIQMTQSPSSLSASVGDRVTITCKASQDVSIGVAWYQEKPGKAPKLLIYSASYRYTGVPSRFSGSGSGTDFTLTISSLQPEDFATYYCQQYYIYPYTFGQGTKVEIKRTVAAPSVFIFPPSDEQLKSGTASVVCLLNNFYPREAKVQWKVDNALQSGNSQESVTEQDSKDSTYSLSSTLTLSKADYEKHKVYACEVTHQGLSSPVTKSFNRGEC
26% | 49% | -0.03 | 48% | -0.08 | 77% | 1.19 | 73% | 1.02 | 92% | 2.47 | 77% | 1.19 | H1L1:H1L2 normalized median ratio (H1L2 part) [15]: 23%; H1L1:H1L2 normalized median ratio (H1L2 part) [16]: 28% | Pertuzumab kappa light chain construct (L2) Q38R, HA-tagged (other, not shown: small tags and cut ends) light: DIQMTQSPSSLSASVGDRVTITCKASQDVSIGVAWYQRKPGKAPKLLIYSASYRYTGVPSRFSGSGSGTDFTLTISSLQPEDFATYYCQQYYIYPYTFGQGTKVEIKRTVAAPSVFIFPPSDEQLKSGTASVVCLLNNFYPREAKVQWKVDNALQSGNSQESVTEQDSKDSTYSLSSTLTLSKADYEKHKVYACEVTHQGLSSPVTKSFNRGEC
